The values that follow are results of earlier work, collected in paper PMC4615603.

The series deals with Nef (Human immunodeficiency virus 1) (UniProt P04324).

Usually Kd stands for the free concentration of one partner at which half of the binding sites on the other are occupied at equilibrium, for simple one-to-one binding. Turning to Hck SH3 (from UniProt P08631), the equilibrium dissociation constant (Kd) is 120 nM.
